Assay results taken from publication PMC4213023, “Structural Basis of Substrate Selectivity of E. coli Prolidase” (PLoS ONE, 2014).

Experiments:
[1] = target: Escherichia coli prolidase PepQ R370E (Escherichia coli) (UniProt P21165)
[2] = target: Escherichia coli prolidase PepQ, wild type (Escherichia coli) (UniProt P21165)
[3] = system: C[C@H](N)C(=O)N1CCC[C@H]1C(N)=O; assay: purified protein; format: biochemical, Escherichia coli; settings: 50 mM Tris pH 8, 20 mM Mg(OAc)2, 25°C, 1 µM AlaDH and 2 mM NAD+ (coupling)
[4] = system: C[C@H](N)C(=O)N1CCC[C@H]1C(=O)O; assay: purified protein; format: biochemical, Escherichia coli; settings: 50 mM Tris pH 8, 20 mM Mg(OAc)2, 25°C, 1 µM AlaDH and 2 mM NAD+ (coupling)
[5] = target: the molecule itself; assay: crystal structure; PepQ 12 mg/ml in 50 mM Tris pH 7.4, 5 mM MgCl2, 5 mM DTT; hanging drop at 4°C, 20% PEG MME 5000, 0.1 M Bis-Tris pH 6.5; one dimer in the asymmetric unit
[6] = target: the molecule itself; assay: SEC; analytical gel filtration, Superose 6, PepQ 10 nM in 50 mM Tris pH 7.4, 50 mM KOAc, 10 mM Mg(OAc)2, 2 mM DTT, 0.4 mL/min, tryptophan fluorescence detection

AlaPro-CONH2 substrate dipeptide
Km (mM) of hydrolysis of the dipeptide, coupled to AlaDH/NAD+ oxidation of alanine, 25°C [1]: 4.7 mM
Km (mM) of hydrolysis of the dipeptide, coupled to AlaDH/NAD+ oxidation of alanine, 25°C [2]: 6.6 mM

AlaPro-COOH substrate dipeptide
Km (mM) of hydrolysis of the dipeptide, coupled to AlaDH/NAD+ oxidation of alanine, 25°C [1]: 127 mM
Km (mM) of hydrolysis of the dipeptide, coupled to AlaDH/NAD+ oxidation of alanine, 25°C [2]: 1.2 mM

E. coli PepQ (Escherichia coli K-12; R370E)
Km [3]: 4.7 ± 0.2 mM
kcat [3]: 1.1 ± 0.4 s⁻¹
kcat/Km [3]: 230 M⁻¹ s⁻¹

E. coli PepQ (Escherichia coli K-12)
Km [3]: 6.6 ± 0.5 mM
kcat [3]: 80.7 ± 19.7 s⁻¹
kcat/Km [3]: 12000 M⁻¹ s⁻¹
Km [4]: 1.2 ± 0.1 mM
kcat [4]: 139 ± 2.5 s⁻¹
kcat/Km [4]: 120000 M⁻¹ s⁻¹

B1: Escherichia coli prolidase PepQ, wild type (enzyme, UniProt P21165 1-443, looked up)
chain: MESLASLYKNHIATLQERTRDALARFKLDALLIHSGELFNVFLDDHPYPFKVNPQFKAWVPVTQVPNCWLLVDGVNKPKLWFYLPVDYWHNVEPLPTSFWTEDVEVIALPKADGIGSLLPAARGNIGYIGPVPERALQLGIEASNINPKGVIDYLHYYRSFKTEYELACMREAQKMAVNGHRAAEEAFRSGMSEFDINIAYLTATGHRDTDVPYSNIVALNEHAAVLHYTKLDHQAPEEMRSFLLDAGAEYNGYAADLTRTWSAKSDNDYAQLVKDVNDEQLALIATMKAGVSYVDYHIQFHQRIAKLLRKHQIITDMSEEAMVENDLTGPFMPHGIGHPLGLQVHDVAGFMQDDSGTHLAAPAKYPYLRCTRILQPGMVLTIEPGIYFIESLLAPWREGQFSKHFNWQKIEALKPFGGIRIEDNVVIHENNVENMTRDLKLA
notes: E. coli PepQ (prolidase), gene PCR amplified from chromosomal E. coli DNA; Cloned NdeI/XhoI into pET21a; Two Mg(II) ions per active site in the crystal; also called E. coli PepQ; WT; source: E. coli BL21[DE3], pET21a, purified (fast-flow Q anion exchange, phenyl-sepharose, ammonium sulfate precipitation)
stoichiometry N [5]: 2

B2: Escherichia coli prolidase PepQ R370E (enzyme, UniProt P21165 1-443, looked up)
chain: MESLASLYKNHIATLQERTRDALARFKLDALLIHSGELFNVFLDDHPYPFKVNPQFKAWVPVTQVPNCWLLVDGVNKPKLWFYLPVDYWHNVEPLPTSFWTEDVEVIALPKADGIGSLLPAARGNIGYIGPVPERALQLGIEASNINPKGVIDYLHYYRSFKTEYELACMREAQKMAVNGHRAAEEAFRSGMSEFDINIAYLTATGHRDTDVPYSNIVALNEHAAVLHYTKLDHQAPEEMRSFLLDAGAEYNGYAADLTRTWSAKSDNDYAQLVKDVNDEQLALIATMKAGVSYVDYHIQFHQRIAKLLRKHQIITDMSEEAMVENDLTGPFMPHGIGHPLGLQVHDVAGFMQDDSGTHLAAPAKYPYLECTRILQPGMVLTIEPGIYFIESLLAPWREGQFSKHFNWQKIEALKPFGGIRIEDNVVIHENNVENMTRDLKLA
notes: E. coli PepQ (prolidase) with R370E, made by site-directed mutagenesis of the wild-type construct (domains of the parent printed as 1-159 and 160-443); Same construct as m1 apart from R370E; PDB 4QR8 is the wild-type parent; also called R370E PepQ; charge-reversed mutant of PepQ; source: E. coli BL21[DE3], pET21a, purified following the protocols used for the wild-type enzyme
binding result [6]: binds
